Among the data in PMC6555819, “Comprehensive study of nuclear receptor DNA binding provides a revised framework for understanding receptor specificity” are binding signal values, retold here.

B1: NRC3_wobSeed49_DR2_G11T_o1 (dsDNA)
DNA 1: GCCAAACTAGTTCAAGAGGTCAAAGTCCGCTTCCCGGCGATTGACAGCGTAGAATGAAGG
DNA 2: CCTTCATTCTACGCTGTCAATCGCCGGGAAGCGGACTTTGACCTCTTGAACTAGTTTGGC
B2: NRC3_wobSeed27_DR1_G10T_o1 (dsDNA)
DNA 1: GCACTCGGATGACAAAGGTCAGAGCTACGCCAGTGAGCGATTGACAGCGTAGAATGAAGG
DNA 2: CCTTCATTCTACGCTGTCAATCGCTCACTGGCGTAGCTCTGACCTTTGTCATCCGAGTGC
B3: NRC3_wobSeed27_DR1_A23G_o1 (dsDNA)
DNA 1: GCACTCGGAGGACAAAGGTCAGGGCTACGCCAGTGAGCGATTGACAGCGTAGAATGAAGG
DNA 2: CCTTCATTCTACGCTGTCAATCGCTCACTGGCGTAGCCCTGACCTTTGTCCTCCGAGTGC
B4: NRC3_wobSeed104_DR4_A11G_o1 (dsDNA)
DNA 1: GCTCTTGTAGGTCAATAGAGGTTAAGAAAGTGCGCTGCGATTGACAGCGTAGAATGAAGG
DNA 2: CCTTCATTCTACGCTGTCAATCGCAGCGCACTTTCTTAACCTCTATTGACCTACAAGAGC
B5: NRC3_wobSeed136_DR5_G5C_o1 (dsDNA)
DNA 1: GCTACCCTAGGTCATTCAGGGGCCAGTATAGAAAGCGCGATTGACAGCGTAGAATGAAGG
DNA 2: CCTTCATTCTACGCTGTCAATCGCGCTTTCTATACTGGCCCCTGAATGACCTAGGGTAGC
B6: NRC3_wobSeed136_DR5_T27C_o1 (dsDNA)
DNA 1: GCTAGCCTAGGTCATTCAGGGGCCAGCATAGAAAGCGCGATTGACAGCGTAGAATGAAGG
DNA 2: CCTTCATTCTACGCTGTCAATCGCGCTTTCTATGCTGGCCCCTGAATGACCTAGGCTAGC
B7: NRC3_wobSeed136_DR5_G26C_o1 (dsDNA)
DNA 1: GCTAGCCTAGGTCATTCAGGGGCCACTATAGAAAGCGCGATTGACAGCGTAGAATGAAGG
DNA 2: CCTTCATTCTACGCTGTCAATCGCGCTTTCTATAGTGGCCCCTGAATGACCTAGGCTAGC
B8: NRC3_wobSeed105_DR4_A13T_o1 (dsDNA)
DNA 1: GCATCTCTAGGTTAAGATAGTTCAGTGAATGCAAATGCGATTGACAGCGTAGAATGAAGG
DNA 2: CCTTCATTCTACGCTGTCAATCGCATTTGCATTCACTGAACTATCTTAACCTAGAGATGC
B9: NRC3_wobSeed18_DR0_A4T_o1 (dsDNA)
DNA 1: GCGTTACAGGGTCAAGGCCAGAGTACGCGTATTGATGCGATTGACAGCGTAGAATGAAGG
DNA 2: CCTTCATTCTACGCTGTCAATCGCATCAATACGCGTACTCTGGCCTTGACCCTGTAACGC
B10: NRC3_wobSeed76_DR3_o1 (dsDNA)
DNA 1: GCCCTACTGGGCCAAAAAGGTCATTGATGCCGATAAGCGATTGACAGCGTAGAATGAAGG
DNA 2: CCTTCATTCTACGCTGTCAATCGCTTATCGGCATCAATGACCTTTTTGGCCCAGTAGGGC
B11: NRC3_wobSeed117_DR4_A18G_o1 (dsDNA)
DNA 1: GCCGTCAAAGTTCAACTGAGGTAACGTAAAGCACGCGCGATTGACAGCGTAGAATGAAGG
DNA 2: CCTTCATTCTACGCTGTCAATCGCGCGTGCTTTACGTTACCTCAGTTGAACTTTGACGGC
B12: NRC3_wobSeed37_DR1_G10A_o1 (dsDNA)
DNA 1: GCCGTCCAAAGTCAAAGGTCAGTGAAGAGATGACGGGCGATTGACAGCGTAGAATGAAGG
DNA 2: CCTTCATTCTACGCTGTCAATCGCCCGTCATCTCTTCACTGACCTTTGACTTTGGACGGC
B13: NRC3_wobSeed137_DR5_T27C_o1 (dsDNA)
DNA 1: GCATATGTAGGTTACATCCGGGTCATCCAGGCTATGGCGATTGACAGCGTAGAATGAAGG
DNA 2: CCTTCATTCTACGCTGTCAATCGCCATAGCCTGGATGACCCGGATGTAACCTACATATGC
B14: NRC3_wobSeed113_DR4_G19A_o1 (dsDNA)
DNA 1: GCATATGTAGGTTAGCTGAGGTCATTCAGACTAGGCGCGATTGACAGCGTAGAATGAAGG
DNA 2: CCTTCATTCTACGCTGTCAATCGCGCCTAGTCTGAATGACCTCAGCTAACCTACATATGC
B15: NRC3_wobSeed53_DR2_A22G_o1 (dsDNA)
DNA 1: GCCCTTACGGGTCACGAGGTTGTAGCACGACGAGCGGCGATTGACAGCGTAGAATGAAGG
DNA 2: CCTTCATTCTACGCTGTCAATCGCCGCTCGTCGTGCTACAACCTCGTGACCCGTAAGGGC
B16: NRC3_wobSeed73_DR3_A5C_o1 (dsDNA)
DNA 1: GCCACACTAGGTCACAGAGGTCAAAGTCCGTGCGTAGCGATTGACAGCGTAGAATGAAGG
DNA 2: CCTTCATTCTACGCTGTCAATCGCTACGCACGGACTTTGACCTCTGTGACCTAGTGTGGC
B17: NRC3_wobSeed40_DR1_G5C_o1 (dsDNA)
DNA 1: GCTACCCTAGGTCATGGGCCAGTATACCACGCGAACGCGATTGACAGCGTAGAATGAAGG
DNA 2: CCTTCATTCTACGCTGTCAATCGCGTTCGCGTGGTATACTGGCCCATGACCTAGGGTAGC
B18: NRC3_wobSeed100_DR4_G16T_o1 (dsDNA)
DNA 1: GCCCTACTGGGCCACTAAAGGTCATTGATTCAGTGAGCGATTGACAGCGTAGAATGAAGG
DNA 2: CCTTCATTCTACGCTGTCAATCGCTCACTGAATCAATGACCTTTAGTGGCCCAGTAGGGC
B19: NRC3_wobSeed100_DR4_T8G_o1 (dsDNA)
DNA 1: GCCCTACGGGGCCACGAAAGGTCATTGATTCAGTGAGCGATTGACAGCGTAGAATGAAGG
DNA 2: CCTTCATTCTACGCTGTCAATCGCTCACTGAATCAATGACCTTTCGTGGCCCCGTAGGGC
B20: NRC3_wobSeed42_DR1_G9A_o1 (dsDNA)
DNA 1: GCTATACAAGGTCAAAGGCCAGAGTACGAATGTCGAGCGATTGACAGCGTAGAATGAAGG
DNA 2: CCTTCATTCTACGCTGTCAATCGCTCGACATTCGTACTCTGGCCTTTGACCTTGTATAGC
B21: NRC3_wobSeed114_DR4_G9A_o1 (dsDNA)
DNA 1: GCAATACAAGGTCATCGTAGGCCAGAGTACGCACAGGCGATTGACAGCGTAGAATGAAGG
DNA 2: CCTTCATTCTACGCTGTCAATCGCCTGTGCGTACTCTGGCCTACGATGACCTTGTATTGC
B22: NRC3_wobSeed93_DR3_G25A_o1 (dsDNA)
DNA 1: GCAGTCAAAGTTCATCTAGGTAACATAAGATATGCTGCGATTGACAGCGTAGAATGAAGG
DNA 2: CCTTCATTCTACGCTGTCAATCGCAGCATATCTTATGTTACCTAGATGAACTTTGACTGC
B23: NRC3_wobSeed97_DR4_G16A_o1 (dsDNA)
DNA 1: GCCAAACTAGGTCACAAAAGGTCAAAGTCGAATGACGCGATTGACAGCGTAGAATGAAGG
DNA 2: CCTTCATTCTACGCTGTCAATCGCGTCATTCGACTTTGACCTTTTGTGACCTAGTTTGGC
B24: NRC3_wobSeed45_DR1_G4A_o1 (dsDNA)
DNA 1: GCTATCAAAGTTCAAAGGTAACGTAAGTATCCACACGCGATTGACAGCGTAGAATGAAGG
DNA 2: CCTTCATTCTACGCTGTCAATCGCGTGTGGATACTTACGTTACCTTTGAACTTTGATAGC
B25: NRC3_wobSeed101_DR4_G27T_o1 (dsDNA)
DNA 1: GCCCTTACGGGTCACTCCAGGTTATATCATCGGAGTGCGATTGACAGCGTAGAATGAAGG
DNA 2: CCTTCATTCTACGCTGTCAATCGCACTCCGATGATATAACCTGGAGTGACCCGTAAGGGC
B26: NRC3_wobSeed58_DR2_G21A_o1 (dsDNA)
DNA 1: GCATCGAAAGGTCGTGAGGTAAGTATACAGAAAGGCGCGATTGACAGCGTAGAATGAAGG
DNA 2: CCTTCATTCTACGCTGTCAATCGCGCCTTTCTGTATACTTACCTCACGACCTTTCGATGC
B27: NRC3_wobSeed133_DR5_G22A_o1 (dsDNA)
DNA 1: GCCGTCCAAGGTCAATGCTAGATCAGTGAAAGCATTGCGATTGACAGCGTAGAATGAAGG
DNA 2: CCTTCATTCTACGCTGTCAATCGCAATGCTTTCACTGATCTAGCATTGACCTTGGACGGC
B28: NRC3_wobSeed64_DR2_G5C_o1 (dsDNA)
DNA 1: GCTACCCTAGGTCATTGGGCCAGTATAGTACGCATCGCGATTGACAGCGTAGAATGAAGG
DNA 2: CCTTCATTCTACGCTGTCAATCGCGATGCGTACTATACTGGCCCAATGACCTAGGGTAGC
B29: NRC3_wobSeed125_DR5_A30G_o1 (dsDNA)
DNA 1: GCCCTTACGGGTCACTGACAGGTTATAGCGTTTGGAGCGATTGACAGCGTAGAATGAAGG
DNA 2: CCTTCATTCTACGCTGTCAATCGCTCCAAACGCTATAACCTGTCAGTGACCCGTAAGGGC
B30: NRC3_wobSeed116_DR4_C16T_o1 (dsDNA)
DNA 1: GCAGAATGAGGTTACTAAAGATCAGGGAAACGCTTGGCGATTGACAGCGTAGAATGAAGG
DNA 2: CCTTCATTCTACGCTGTCAATCGCCAAGCGTTTCCCTGATCTTTAGTAACCTCATTCTGC
B31: NRC3_wobSeed116_DR4_A9G_o1 (dsDNA)
DNA 1: GCAGAATGGGGTTACCAAAGATCAGGGAAACGCTTGGCGATTGACAGCGTAGAATGAAGG
DNA 2: CCTTCATTCTACGCTGTCAATCGCCAAGCGTTTCCCTGATCTTTGGTAACCCCATTCTGC

LXRa:RXRa, sequence (Q13133 whole entry, chain 1 of 2): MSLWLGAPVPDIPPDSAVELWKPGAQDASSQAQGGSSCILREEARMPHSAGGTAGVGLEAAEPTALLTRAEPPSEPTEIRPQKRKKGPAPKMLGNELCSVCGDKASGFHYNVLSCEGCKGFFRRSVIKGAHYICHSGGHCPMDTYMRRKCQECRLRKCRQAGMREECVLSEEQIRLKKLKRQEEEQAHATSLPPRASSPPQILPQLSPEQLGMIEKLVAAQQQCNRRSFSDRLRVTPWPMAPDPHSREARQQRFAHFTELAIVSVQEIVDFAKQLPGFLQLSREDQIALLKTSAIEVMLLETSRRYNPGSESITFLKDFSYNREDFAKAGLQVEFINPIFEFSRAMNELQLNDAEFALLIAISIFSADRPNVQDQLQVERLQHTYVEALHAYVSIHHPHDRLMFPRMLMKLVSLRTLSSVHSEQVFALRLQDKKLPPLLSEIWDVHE
LXRa:RXRa, sequence (P19793 whole entry, chain 2 of 2): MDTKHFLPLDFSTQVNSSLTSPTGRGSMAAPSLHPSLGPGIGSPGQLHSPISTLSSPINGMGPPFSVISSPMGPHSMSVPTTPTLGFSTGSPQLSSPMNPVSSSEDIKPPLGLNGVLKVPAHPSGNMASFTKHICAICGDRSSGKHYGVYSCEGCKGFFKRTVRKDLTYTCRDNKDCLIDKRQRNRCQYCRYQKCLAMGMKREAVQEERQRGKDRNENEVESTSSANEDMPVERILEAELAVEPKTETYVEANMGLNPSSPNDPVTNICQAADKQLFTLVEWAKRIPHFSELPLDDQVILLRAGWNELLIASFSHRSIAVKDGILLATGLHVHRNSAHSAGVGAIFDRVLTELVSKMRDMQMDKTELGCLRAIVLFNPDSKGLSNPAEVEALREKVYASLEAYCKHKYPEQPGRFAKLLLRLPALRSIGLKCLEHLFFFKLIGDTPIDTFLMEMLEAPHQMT

This data set deals with LXRa:RXRa (Homo sapiens, UniProt Q13133;P19793 full;full). In words: no ligand; PBM; 270 nM : 90 nM RXRa; PBS pH 7.4, 2% milk, 0.02% Triton X-100, 1 mM DTT, BSA, 0.4 mg/ml salmon testes DNA. The settings on record: tags: His kept;His cleaved; copies: 1;1; label: surface-attached array probe. A digest of the protocol:
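Probes were double-stranded and carried 34-nt variable regions with direct-repeat seeds, single-nucleotide variants, half-site ablations and random human genomic background sequences, printed on custom Agilent 4×180K protein-binding microarrays. Arrays were incubated 1 h with ligand-free nuclear receptor dimers in PBS pH 7.4, 2% milk, 0.02% Triton X-100, 1 mM DTT, 0.2 mg/mL BSA and 0.4 mg/ml salmon testes DNA. Antibodies against each partner (one per run) detected binding, and scanned fluorescence was regression-normalized. Binding z-scores use the random background probes as reference.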
Take B1: the binding signal was 6.74 PBM z-score against 500 random probes.
Consider B2, for which the binding signal was 4.09 PBM z-score against 500 random probes.
The value for B3 was 4.04 PBM z-score against 500 random probes.
For B4 the value was 7.01 PBM z-score against 500 random probes.
The value for B5 was 6.72 PBM z-score against 500 random probes; that for B6 was 3.99 PBM z-score against 500 random probes; that for B7 was 4.28 PBM z-score against 500 random probes.
As for B8, the binding signal was 6.81 PBM z-score against 500 random probes.
The value for B9 was 4.02 PBM z-score against 500 random probes; that for B10 was 4.25 PBM z-score against 500 random probes.
For B11 the value was 6.87 PBM z-score against 500 random probes; for B12, 3.96 PBM z-score against 500 random probes.
The value for B13 was 4.22 PBM z-score against 500 random probes; that for B14 was 6.64 PBM z-score against 500 random probes; that for B15 was 4.14 PBM z-score against 500 random probes.
In the case of B16, the binding signal is 7.06 PBM z-score against 500 random probes.
In the case of B17, the binding signal was 6.6 PBM z-score against 500 random probes.
Regarding B18, the binding signal is 7.03 PBM z-score against 500 random probes.
For B19 the value was 6.67 PBM z-score against 500 random probes; for B20, 7.02 PBM z-score against 500 random probes; for B21, 7.16 PBM z-score against 500 random probes.
For the molecule B22, the binding signal is 6.61 PBM z-score against 500 random probes.
For B23 the value was 8.65 PBM z-score against 500 random probes; for B24, 7.29 PBM z-score against 500 random probes; for B25, 8.05 PBM z-score against 500 random probes.
Take B26: the binding signal is 4.07 PBM z-score against 500 random probes.
Take B27: the binding signal is 4.19 PBM z-score against 500 random probes.
For the molecule B28, the binding signal was 6.89 PBM z-score against 500 random probes.
The value for B29 was 4.16 PBM z-score against 500 random probes; that for B30 was 8.1 PBM z-score against 500 random probes.
Take B31: the binding signal is 7.02 PBM z-score against 500 random probes.
